± gives the uncertainty stated by the source.
Experiment: amyloid nucleation score (Sup35N fusion, yeast selection) (log enrichment); library NNK2; higher = more nucleation; inactive = no reads after selection
Summary of the method: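 Growth for 7 days at 30°C on medium lacking adenine and uracil followed a 24-hour induction with 100 μM copper sulfate of psi-negative yeast expressing peptides of 20 random codons fused to Sup35N. Input and output plasmid inserts were sequenced with Illumina, and sequences with under 100 input reads were excluded. Nucleation score is the DiMSum log enrichment of output over input reads, centred on the mode score of non-aggregating sequences.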

| Substance | amyloid nucleation score |
| --- | --- |
| LILSSSSLVGVALRRVYCVT | -0.809 ± 0.34 |
| VVVFMHV | 1.51 ± 0.32 |
| SDPLSFGFGQMWIGVHNEFY | 2.2 ± 0.16 |
| LLNILISRAYLWSGFFERFL | inactive |
| GAFIMWYTGWVPHVDSGCCL | -1.04 ± 1.1 |
| GKVGWDCCISQIYCLDLFIP | 8.292 ± 0.047 |
| YTVLWRCTFTKARVFGCVSL | 0.414 ± 0.51 |
| CSQIRFGRADRLNETSIKLV | 0.333 ± 0.54 |
| SASQDATPHGCGIGISLNTR | 2.79 ± 0.068 |
| YLWDTIYIDLSVLLVLATSW | 0.21 ± 0.54 |
| YHNWSA | 0.025 ± 0.23 |
| LRSLGAGAIYMPALQCRSRS | 0.255 ± 0.5 |
| SIFRWKREKAVGLYPLHQVA | -0.094 ± 0.76 |
| AVSHCMDDSFWGAIHKRLLY | 3.63 ± 0.15 |
| ALQDMTI | -0.176 ± 0.36 |
| TGVFHSVCNIWCFHSKDPSN | 7.54 ± 0.076 |
| GSYTHARINSVIFNRYTLCS | 0.219 ± 1 |
| VTVRAQY | -0.497 ± 0.45 |
| FLGVFSYASSMIISVKRERS | 4.1 ± 0.095 |
| LMYVCSLNNPLFMYANLL | 5.54 ± 0.084 |
| RFEYLFLEEYKLLAMRYLRT | -0.986 ± 0.3 |
| VTSNGKRTWHVAAAFGAPGE | 2.54 ± 0.12 |

| Substance | amyloid nucleation score |
| --- | --- |
| NECRVDFE | -0.668 ± 0.56 |
| RLMHGRIRPLNSKWLTGLG | 1.11 ± 0.34 |
| QQYSADLLRGYPCMSYVPVG | -0.091 ± 0.26 |
| VGHSIEALELTPIVVRYTYL | -0.341 ± 0.45 |
| PVGWSNRFRTMLPDS | 0.861 ± 0.48 |
| ETPLTGLRNPSLNQCLMELM | 0.232 ± 0.5 |
| FYAHYASHL | inactive |
| TFYCTSCFLLMSVMSFHRLL | 1.89 ± 0.13 |
| FNVKWMRW | 5.36 ± 0.066 |
| MVSFGSGGELFFMHTQFSAR | -0.311 ± 0.64 |
| GFGLPTGEVVTNNMALGKTE | -0.844 ± 0.49 |
| IMLLNLYKDGSGGRRSKLLQ | -0.09 ± 0.33 |
| LCTTNSLF | -0.671 ± 0.38 |
| LKLFNGVRPKNGM | -1.6 ± 0.75 |
| VGRQSCFVYMWCWTYHMWGL | 1.37 ± 0.32 |
| FGISSNATRDWRLFDHRAVG | 0.637 ± 0.47 |
| SKWYVGRHFPPWPR | 0.769 ± 0.24 |
| ERTCSIRDPNRDIPGFPFSY | inactive |
| SAPRNNVATLTEHLERLVLR | -0.767 ± 0.76 |
| TSDLNNSSSMKAYSNEHSGC | 0.411 ± 0.4 |
| KILDWRGWSRGSGPLTSSTW | 1.04 ± 0.38 |
| RHPGPAL | 0.857 ± 0.25 |

| Substance | amyloid nucleation score |
| --- | --- |
| NGDLIRDRECRANMRFIMRV | -1.21 ± 0.45 |
| SIRLYSCSMVLTSSSVNCYQ | 1.86 ± 0.17 |
| FIDPGHFTLDLGCSPPESEV | 4.5 ± 0.085 |
| VSCVCHYVNNFNPMLCNRKC | -0.064 ± 0.8 |
| ELVYHLSNLKG | -0.381 ± 1.1 |
| TLGLHGED | 0.23 ± 0.31 |
| VKWTTVVD | 0.963 ± 0.26 |
| GSGGWLAGHKTVK | 0.174 ± 1 |
| IKYNEVVVVRWEANGRFE | 4 ± 0.063 |
| VFDAKTFGGDTVFVAAEAHS | -0.669 ± 1 |
| IRGLGWSAPLRVIRVAPTYV | 0.501 ± 0.57 |
| GLYVLYDNINWDERTRALSG | -0.728 ± 0.48 |
| VDLGMPSLWRSDGASPGGFF | 0.277 ± 0.49 |
| VFTSFVG | 0.536 ± 0.46 |
| SSWPSMST | -0.458 ± 0.28 |
| GAMNCRVSSKTRWCDTHMVP | 1.53 ± 0.52 |
| SLYLSWYDIFLMYGCWNVVR | 0.638 ± 0.37 |
| YVDWAG | -1.56 ± 0.62 |
| SQGIVSDAANYMHILSAGYD | 0.044 ± 0.55 |
| EYCACTFDWWGYQGCCD | -1.04 ± 0.63 |
| NRSDPDLCNKC | 1.96 ± 0.14 |
| DKYFLLAYGVWGSLRFLTLC | -0.288 ± 1 |

| Substance | amyloid nucleation score |
| --- | --- |
| SGWELRQITFGMTDCIGG | -0.328 ± 0.42 |
| WSGWSQGDGLVQGQVMRAFV | -0.284 ± 0.79 |
| RLPFYVW | inactive |
| ICLFDY | -2.02 ± 0.62 |
| HLRYGGFAV | 0.085 ± 0.2 |
| AHEYEPNFFRLCYKVRLWNA | -0.244 ± 0.22 |
| VHIMNSLVGSIVLGSSRRLS | 5.77 ± 0.062 |
| YYYIRCTAVK | -0.495 ± 0.65 |
| LSGLRRPNRFLYT | -0.897 ± 0.43 |
| FKPLGTTEGIYTPVMYSYRG | -0.6 ± 0.27 |
| TMHCSSLPQTSLVGTNHNAD | -0.327 ± 0.28 |
| LDLGAPPWH | 1.03 ± 0.36 |
| FNYWPYVLNWWELLYQDDAT | 1.11 ± 0.23 |
| YLGLDARLI | 0.661 ± 0.8 |
| SDSSRFVDKGSYRYKRREWE | -0.161 ± 0.65 |
| VRLTMQYGHVYPGCSLLPYV | 4.75 ± 0.049 |
| DRYWLERWSDGNCGRSARIR | 1.22 ± 0.4 |
| AVKCVVEVTPWLDVKIKSFY | -0.735 ± 0.55 |
| KSRISMPPSVLLDYGLAHNA | -0.598 ± 0.63 |
| SLSRCALL | -0.789 ± 0.39 |
